Reference: patent US20250262210A1 (TRUSTEES OF COLUMBIA UNIVERSITY IN THE CITY OF NEW YORK, published 2025)

Columns and labels:
Test in all cases: IP/MS, LZTR1 wild type-FLAG, U87
BRCA2 = BRCA2 (human, UniProt P51587 1-3418)
Procedure, shortened: (§1)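 Gel slices were reduced with 5 mM DTT, alkylated with 11 mM IAA and digested overnight at 37° C. with trypsin. Peptides were analysed on an Orbitrap Fusion Tribrid by LC-MS/MS.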

DMXL2 = DMXL2 (human, UniProt Q8TDJ6 1-3036, limits assumed)
Procedure, shortened: as §1

SKIV2L = SKIV2L (human, UniProt Q15477 1-1246)
Sequence of SKIV2L (Q15477 whole entry): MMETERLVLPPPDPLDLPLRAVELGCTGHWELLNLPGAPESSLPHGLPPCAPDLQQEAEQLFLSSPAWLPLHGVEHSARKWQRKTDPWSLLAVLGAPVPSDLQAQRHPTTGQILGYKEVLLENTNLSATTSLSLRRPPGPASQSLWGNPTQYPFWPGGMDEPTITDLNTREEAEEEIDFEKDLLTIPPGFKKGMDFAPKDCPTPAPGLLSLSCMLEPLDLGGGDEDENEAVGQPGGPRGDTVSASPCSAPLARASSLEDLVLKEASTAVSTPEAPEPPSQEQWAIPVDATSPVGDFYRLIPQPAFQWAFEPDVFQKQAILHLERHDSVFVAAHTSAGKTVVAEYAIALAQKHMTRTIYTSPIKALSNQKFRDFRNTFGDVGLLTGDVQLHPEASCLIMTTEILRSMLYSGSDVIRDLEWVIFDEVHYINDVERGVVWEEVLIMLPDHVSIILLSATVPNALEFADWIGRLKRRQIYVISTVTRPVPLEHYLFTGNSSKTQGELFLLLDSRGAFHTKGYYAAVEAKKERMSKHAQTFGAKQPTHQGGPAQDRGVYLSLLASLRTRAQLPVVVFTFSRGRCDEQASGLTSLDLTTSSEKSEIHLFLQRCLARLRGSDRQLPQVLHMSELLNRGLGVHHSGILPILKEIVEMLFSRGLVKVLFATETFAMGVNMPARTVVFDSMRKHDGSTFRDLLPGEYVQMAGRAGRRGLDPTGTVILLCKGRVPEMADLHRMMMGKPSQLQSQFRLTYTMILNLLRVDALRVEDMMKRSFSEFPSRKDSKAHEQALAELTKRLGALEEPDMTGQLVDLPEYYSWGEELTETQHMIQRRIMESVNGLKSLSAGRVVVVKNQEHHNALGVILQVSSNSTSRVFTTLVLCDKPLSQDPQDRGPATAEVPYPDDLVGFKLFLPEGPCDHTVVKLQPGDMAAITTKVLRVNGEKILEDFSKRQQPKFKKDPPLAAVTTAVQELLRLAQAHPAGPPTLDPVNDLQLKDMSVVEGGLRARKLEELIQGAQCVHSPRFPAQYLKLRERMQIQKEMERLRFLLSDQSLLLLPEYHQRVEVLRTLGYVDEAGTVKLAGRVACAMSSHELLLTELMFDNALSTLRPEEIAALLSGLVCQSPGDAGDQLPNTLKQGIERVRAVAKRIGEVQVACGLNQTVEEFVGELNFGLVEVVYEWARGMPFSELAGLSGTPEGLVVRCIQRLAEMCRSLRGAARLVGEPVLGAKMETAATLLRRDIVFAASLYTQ
Procedure, shortened: as §1

AMBRA1 = biological target: T1, AMBRA1 (human, UniProt Q9C0C7 1-1298, limits assumed)
T1 sequence (looked up): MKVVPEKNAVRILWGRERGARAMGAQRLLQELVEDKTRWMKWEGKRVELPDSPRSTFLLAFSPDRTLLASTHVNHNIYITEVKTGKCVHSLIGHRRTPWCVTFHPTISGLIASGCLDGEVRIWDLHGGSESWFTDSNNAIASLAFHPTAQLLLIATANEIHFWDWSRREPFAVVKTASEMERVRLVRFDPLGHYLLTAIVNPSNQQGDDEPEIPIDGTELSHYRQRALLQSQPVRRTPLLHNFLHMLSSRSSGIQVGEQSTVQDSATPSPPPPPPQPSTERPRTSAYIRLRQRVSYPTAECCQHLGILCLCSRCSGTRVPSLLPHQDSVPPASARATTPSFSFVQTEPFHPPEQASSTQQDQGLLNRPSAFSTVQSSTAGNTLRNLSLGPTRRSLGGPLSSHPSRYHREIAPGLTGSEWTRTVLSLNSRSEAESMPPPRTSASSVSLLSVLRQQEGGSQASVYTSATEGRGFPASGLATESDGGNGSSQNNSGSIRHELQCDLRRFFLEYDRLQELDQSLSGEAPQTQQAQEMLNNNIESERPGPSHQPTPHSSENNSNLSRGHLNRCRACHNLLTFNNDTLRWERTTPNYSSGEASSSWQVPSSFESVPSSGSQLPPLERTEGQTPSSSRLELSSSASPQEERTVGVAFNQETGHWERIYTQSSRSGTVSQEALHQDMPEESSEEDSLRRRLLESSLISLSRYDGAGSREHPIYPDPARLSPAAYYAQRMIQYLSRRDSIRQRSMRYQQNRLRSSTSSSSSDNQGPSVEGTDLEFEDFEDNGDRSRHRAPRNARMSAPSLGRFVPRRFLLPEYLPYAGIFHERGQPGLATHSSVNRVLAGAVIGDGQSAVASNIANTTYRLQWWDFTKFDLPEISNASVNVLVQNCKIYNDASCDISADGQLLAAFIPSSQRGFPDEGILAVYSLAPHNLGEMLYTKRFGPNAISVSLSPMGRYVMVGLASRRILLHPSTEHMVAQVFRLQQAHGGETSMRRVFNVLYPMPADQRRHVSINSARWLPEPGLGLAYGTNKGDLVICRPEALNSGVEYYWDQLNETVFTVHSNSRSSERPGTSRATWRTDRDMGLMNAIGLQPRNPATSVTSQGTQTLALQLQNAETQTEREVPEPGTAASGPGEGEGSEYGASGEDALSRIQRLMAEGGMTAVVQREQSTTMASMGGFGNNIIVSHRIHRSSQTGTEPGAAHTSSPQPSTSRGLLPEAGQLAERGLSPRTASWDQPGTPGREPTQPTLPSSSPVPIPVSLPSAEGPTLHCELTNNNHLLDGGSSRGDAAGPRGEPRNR
Procedure, shortened: as §1

Sequence of BRCA2 (P51587 whole entry, the tested form may be a part): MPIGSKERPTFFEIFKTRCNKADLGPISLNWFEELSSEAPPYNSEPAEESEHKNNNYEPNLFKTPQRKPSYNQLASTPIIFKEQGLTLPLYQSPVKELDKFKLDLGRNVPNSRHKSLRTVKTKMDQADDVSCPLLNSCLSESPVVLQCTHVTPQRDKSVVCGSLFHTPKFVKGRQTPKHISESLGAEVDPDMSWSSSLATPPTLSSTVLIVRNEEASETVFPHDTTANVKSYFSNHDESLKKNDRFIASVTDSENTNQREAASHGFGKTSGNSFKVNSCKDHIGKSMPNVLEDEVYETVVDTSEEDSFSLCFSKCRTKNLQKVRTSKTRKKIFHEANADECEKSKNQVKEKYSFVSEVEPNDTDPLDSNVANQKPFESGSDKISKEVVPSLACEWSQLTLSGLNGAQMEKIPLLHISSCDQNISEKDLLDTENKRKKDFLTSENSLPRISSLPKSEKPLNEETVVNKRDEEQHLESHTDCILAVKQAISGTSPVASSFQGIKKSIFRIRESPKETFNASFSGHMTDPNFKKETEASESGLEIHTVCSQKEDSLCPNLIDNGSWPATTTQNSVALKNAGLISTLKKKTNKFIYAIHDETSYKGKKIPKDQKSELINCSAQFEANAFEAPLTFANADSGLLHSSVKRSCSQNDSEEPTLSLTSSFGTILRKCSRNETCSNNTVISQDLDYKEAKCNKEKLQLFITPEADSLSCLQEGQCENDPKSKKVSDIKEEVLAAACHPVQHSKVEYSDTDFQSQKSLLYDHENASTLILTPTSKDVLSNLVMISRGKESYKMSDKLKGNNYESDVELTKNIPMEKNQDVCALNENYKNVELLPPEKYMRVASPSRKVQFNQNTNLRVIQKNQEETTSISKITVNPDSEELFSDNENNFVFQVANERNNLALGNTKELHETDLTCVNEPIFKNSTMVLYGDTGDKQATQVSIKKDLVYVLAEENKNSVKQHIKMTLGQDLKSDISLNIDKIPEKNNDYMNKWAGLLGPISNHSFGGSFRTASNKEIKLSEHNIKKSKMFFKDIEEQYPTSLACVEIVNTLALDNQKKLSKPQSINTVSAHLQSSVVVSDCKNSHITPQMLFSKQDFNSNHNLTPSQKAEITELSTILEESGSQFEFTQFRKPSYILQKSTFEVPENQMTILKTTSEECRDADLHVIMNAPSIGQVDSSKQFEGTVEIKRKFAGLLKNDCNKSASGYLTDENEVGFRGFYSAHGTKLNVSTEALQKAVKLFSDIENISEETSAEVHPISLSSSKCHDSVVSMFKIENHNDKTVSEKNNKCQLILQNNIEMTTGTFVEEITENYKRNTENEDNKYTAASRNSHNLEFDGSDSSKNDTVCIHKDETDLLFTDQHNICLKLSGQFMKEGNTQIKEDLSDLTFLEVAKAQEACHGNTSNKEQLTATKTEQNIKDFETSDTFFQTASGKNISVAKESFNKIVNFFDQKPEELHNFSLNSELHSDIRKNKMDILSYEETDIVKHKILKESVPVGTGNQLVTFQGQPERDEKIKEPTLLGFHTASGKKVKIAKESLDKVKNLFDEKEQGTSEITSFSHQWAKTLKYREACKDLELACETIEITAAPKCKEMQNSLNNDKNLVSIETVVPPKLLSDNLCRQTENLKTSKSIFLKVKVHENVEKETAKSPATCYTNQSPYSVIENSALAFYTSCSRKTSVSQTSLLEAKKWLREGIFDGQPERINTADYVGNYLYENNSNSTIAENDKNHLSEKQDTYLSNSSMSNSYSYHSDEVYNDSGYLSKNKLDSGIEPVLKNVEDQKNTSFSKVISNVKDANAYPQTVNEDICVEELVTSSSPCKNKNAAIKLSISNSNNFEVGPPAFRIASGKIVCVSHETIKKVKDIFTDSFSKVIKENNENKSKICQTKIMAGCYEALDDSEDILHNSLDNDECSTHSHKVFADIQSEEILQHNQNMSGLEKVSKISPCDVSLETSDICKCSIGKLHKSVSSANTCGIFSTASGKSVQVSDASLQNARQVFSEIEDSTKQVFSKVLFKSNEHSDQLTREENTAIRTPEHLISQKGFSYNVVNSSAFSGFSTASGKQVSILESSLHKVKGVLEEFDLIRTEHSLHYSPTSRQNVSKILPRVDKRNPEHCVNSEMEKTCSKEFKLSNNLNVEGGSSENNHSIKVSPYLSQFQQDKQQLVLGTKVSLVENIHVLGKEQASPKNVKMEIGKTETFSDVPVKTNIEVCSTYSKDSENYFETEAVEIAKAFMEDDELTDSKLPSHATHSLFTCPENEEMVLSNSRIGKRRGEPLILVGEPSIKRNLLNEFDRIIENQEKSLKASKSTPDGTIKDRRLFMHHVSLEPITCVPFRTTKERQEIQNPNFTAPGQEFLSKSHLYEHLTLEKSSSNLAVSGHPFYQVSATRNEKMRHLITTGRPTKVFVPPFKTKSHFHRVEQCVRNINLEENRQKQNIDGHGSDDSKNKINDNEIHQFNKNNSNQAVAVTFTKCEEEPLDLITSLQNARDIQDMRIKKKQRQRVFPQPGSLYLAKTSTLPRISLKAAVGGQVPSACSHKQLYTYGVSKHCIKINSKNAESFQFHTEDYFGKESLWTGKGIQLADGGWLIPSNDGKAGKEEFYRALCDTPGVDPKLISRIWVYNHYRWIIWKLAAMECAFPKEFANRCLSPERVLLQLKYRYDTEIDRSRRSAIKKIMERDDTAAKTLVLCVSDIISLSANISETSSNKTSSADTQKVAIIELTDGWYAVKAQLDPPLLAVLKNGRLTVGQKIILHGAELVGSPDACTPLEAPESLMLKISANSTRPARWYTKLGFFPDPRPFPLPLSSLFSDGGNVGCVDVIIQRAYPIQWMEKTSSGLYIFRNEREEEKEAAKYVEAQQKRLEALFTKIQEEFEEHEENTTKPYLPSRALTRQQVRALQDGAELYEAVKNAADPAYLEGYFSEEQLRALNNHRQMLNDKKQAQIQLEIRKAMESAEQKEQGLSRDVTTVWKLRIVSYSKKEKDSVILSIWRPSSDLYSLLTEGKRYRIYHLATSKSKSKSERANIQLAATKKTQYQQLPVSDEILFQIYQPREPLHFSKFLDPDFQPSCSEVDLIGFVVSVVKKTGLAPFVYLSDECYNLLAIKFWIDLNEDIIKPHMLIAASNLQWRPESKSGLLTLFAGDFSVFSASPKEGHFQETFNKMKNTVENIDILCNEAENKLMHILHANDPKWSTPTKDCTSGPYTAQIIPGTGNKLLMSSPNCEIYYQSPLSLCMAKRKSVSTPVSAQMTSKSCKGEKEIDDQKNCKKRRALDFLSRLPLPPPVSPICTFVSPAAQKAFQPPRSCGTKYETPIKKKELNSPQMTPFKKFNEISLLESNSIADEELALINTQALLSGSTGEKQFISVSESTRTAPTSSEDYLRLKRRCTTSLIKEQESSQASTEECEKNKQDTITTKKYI

binding result (BRCA2): binds
binding result (DMXL2): binds
binding result (SKIV2L): binds
binding result (AMBRA1): binds
B1: LZTR1-FLAG (other, human, UniProt Q8N653 1-840, looked up)
chain: MAGPGSTGGQIGAAALAGGARSKVAPSVDFDHSCSDSVEYLTLNFGPFETVHRWRRLPPCDEFVGARRSKHTVVAYKDAIYVFGGDNGKTMLNDLLRFDVKDCSWCRAFTTGTPPAPRYHHSAVVYGSSMFVFGGYTGDIYSNSNLKNKNDLFEYKFATGQWTEWKIEGRLPVARSAHGATVYSDKLWIFAGYDGNARLNDMWTIGLQDRELTCWEEVAQSGEIPPSCCNFPVAVCRDKMFVFSGQSGAKITNNLFQFEFKDKTWTRIPTEHLLRGSPPPPQRRYGHTMVAFDRHLYVFGGAADNTLPNELHCYDVDFQTWEVVQPSSDSEVGGAEVPERACASEEVPTLTYEERVGFKKSRDVFGLDFGTTSAKQPTQPASELPSGRLFHAAAVISDAMYIFGGTVDNNIRSGEMYRFQFSCYPKCTLHEDYGRLWESRQFCDVEFVLGEKEECVQGHVAIVTARSRWLRRKITQARERLAQKLEQEAAPVPREAPGVAAGGARPPLLHVAIREAEARPFEVLMQFLYTDKIKYPRKGHVEDVLLIMDVYKLALSFQLCRLEQLCRQYIEASVDLQNVLVVCESAARLQLSQLKEHCLNFVVKESHFNQVIMMKEFERLSSPLIVEIVRRKQQPPPRTPLDQPVDIGTSLIQDMKAYLEGAGAEFCDITLLLDGHPRPAHKAILAARSSYFEAMFRSFMPEDGQVNISIGEMVPSRQAFESMLRYIYYGEVNMPPEDSLYLFAAPYYYGFYNNRLQAYCKQNLEMNVTVQNVLQILEAADKTQALDMKRHCLHIIVHQFTKVSKLPTLRSLSQQLLLDIIDSLASHISDKQCAELGADI
notes: Expressed in HEK 293T, HeLa or U87 cells; used as cell lysate; also called LZTR1 wild type-FLAG; LZTR1 WT; not shown: FLAG tag at the C-terminus
